{"source": "patent US20030119727A1", "about": "(Genentech, published 2003)", "binders": {"B1": {"name": "Phage bearing the TF56 peptide sequence EAALCDDPRLDRWYCIFAGE (Pool E clone, polyvalent phage display) (peptide)", "peptide": "EAALCDDPRLDRWYCIFAGE", "modifications": "not fully specified (bridges); cysteine pairing not given here; also: displayed on phage, coat protein fusion partner not given here", "notes": "also called this clone"}, "B2": {"name": "peptide TF151 (peptide)", "peptide": "ALCDNPRIDRWYCQFVEG", "modifications": "disulfide 3-13 (inferred)", "notes": "Chemically synthesized, with the disulfide oxidized"}}, "key": {"[1]": {"molecular_target": "T1, recombinant human Factor VIIa (human, UniProt P08709 61-212; P08709 213-466)", "T1 construct": "Immobilized directly on microtiter plates at 2 ug/ml; also called FVIIa", "T1 sequence (looked up) 1": "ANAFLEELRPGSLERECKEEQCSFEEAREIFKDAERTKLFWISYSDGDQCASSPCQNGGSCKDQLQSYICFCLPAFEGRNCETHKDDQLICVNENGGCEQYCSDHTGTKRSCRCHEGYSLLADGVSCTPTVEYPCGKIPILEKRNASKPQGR", "T1 sequence (looked up) 2": "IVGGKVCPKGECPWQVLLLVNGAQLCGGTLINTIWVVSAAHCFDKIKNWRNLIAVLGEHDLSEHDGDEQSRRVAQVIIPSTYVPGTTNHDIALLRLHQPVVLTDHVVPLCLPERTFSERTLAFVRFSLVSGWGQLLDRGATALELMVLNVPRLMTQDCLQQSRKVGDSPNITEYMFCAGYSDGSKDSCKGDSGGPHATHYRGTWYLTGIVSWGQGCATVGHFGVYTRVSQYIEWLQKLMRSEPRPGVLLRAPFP", "assay": "phage binding to coated wells"}, "BSA": {"molecular_target": "T2, BSA (UniProt P02769 25-607)", "T2 construct": "Control coating; also called bovine serum albumin", "T2 sequence (P02769 25-607 limits assumed)": "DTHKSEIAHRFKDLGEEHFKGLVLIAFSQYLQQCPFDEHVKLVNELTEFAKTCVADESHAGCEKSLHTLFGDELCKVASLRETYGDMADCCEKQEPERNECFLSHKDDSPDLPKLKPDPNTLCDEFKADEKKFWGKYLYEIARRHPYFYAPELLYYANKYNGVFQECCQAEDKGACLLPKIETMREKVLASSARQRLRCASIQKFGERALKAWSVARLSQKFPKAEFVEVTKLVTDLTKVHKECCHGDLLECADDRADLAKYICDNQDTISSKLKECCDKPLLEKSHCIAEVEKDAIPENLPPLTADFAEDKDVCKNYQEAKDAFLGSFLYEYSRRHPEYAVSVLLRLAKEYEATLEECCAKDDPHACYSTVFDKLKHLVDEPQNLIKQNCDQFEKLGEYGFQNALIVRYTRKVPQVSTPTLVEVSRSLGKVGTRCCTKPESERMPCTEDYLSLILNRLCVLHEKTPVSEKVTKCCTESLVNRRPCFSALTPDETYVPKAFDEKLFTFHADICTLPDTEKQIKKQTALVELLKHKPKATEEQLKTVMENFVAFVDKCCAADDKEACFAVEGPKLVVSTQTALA", "assay": "phage binding to coated wells"}, "[2]": {"molecular_target": "T1, recombinant human Factor VIIa", "assay": "FVIIa Binding ELISA, competition with 20 nM TF147b on immobilized FVIIa", "experimental": "FVIIa Binding ELISA—The ability of peptides to compete with biotinylated versions of TF76 (e.g. TF147b, or other peptides described herein that could be biotinylated as described) for binding to FVIIa was monitored using a FVIIa Binding ELISA or a TF-FVIIa Binding ELISA. Microtiter plates were coated overnight with 2 μg/ml recombinant human FVIIa or 2 μg/ml TF₁₋₂₄₃ (Paborsky, L. R. et al. (1991) J. Biol. Chem. 266: 21911) in 50 mM ammonium bicarbonate pH 9 at 4° C.; all other steps were performed at room temperature. Plates were then blocked with 1% BSA in Assay Buffer (50 mM HEPES, pH 7.2, 5 mM CaCl₂, 150 mM NaCl). […] The microtiter plate was washed 3 times with Assay Buffer plus 0.05% Tween 20 and the biotinylated-peptide bound was detected with a Streptavidin/HRP conjugate (Streptavidin-POD, Roche Molecular Biochemicals). The amount of HRP bound was measured using ABTS/H₂O₂ substrate (Kirkegaard and Perry Laboratories) and monitoring the absorbance at 405 nm. The absorbance at 405 nm was plotted versus the concentration of peptide originally added to the well. Sigmoidal curves were fit to a four parameter equation by nonlinear regression analysis (Marquardt, J. Soc. Indust. Appl. Math. 11:431-441 (1963); the concentration of each peptide required to give a half-maximal signal in the assay was calculated from the curves and is referred to as the IC₅₀ value. […]"}, "[3]": {"molecular_target": "T3, recombinant human Factor VIIa (human, UniProt P08709 61-212; P08709 213-466)", "T3 chain 1": "T1 sequence (looked up) 1", "T3 chain 2": "T1 sequence (looked up) 2", "assay": "competition ELISA"}}, "note": "Positions of bridges follow the written chain, without caps; N, C: chain ends. No end group written: not given here."}
{"binder": "B1", "values": [{"measurement": "binding result", "setting": "[1]", "result": "binds"}, {"measurement": "binding result", "setting": "BSA", "result": "no binding"}]}
{"binder": "SQAQRRAVGALCDNPRIDRWYCQFVEGGGGSSG (Fc fusion, cysteine pairing not given here; also: fused to human IgG1 Fc, dimer, not shown: Fc portion of the human IgG1)", "note": "[TF151-Fc fusion]", "values": [{"measurement": "IC50", "setting": "[2]", "result": 3, "unit": "nM"}]}
{"binder": "Ac-ALCDDPRVDRWYCQFVEG-NH2 (disulfide 3-13 (inferred))", "note": "[peptide TF76 (Ac-ALCDDPRVDRWYCQFVEG-NH2)]", "values": [{"measurement": "IC50", "setting": "[3]", "result": 21, "unit": "nM"}]}
{"binder": "B2", "values": [{"measurement": "IC50", "setting": "[2]", "result": 2, "unit": "nM"}]}
